Source: patent US20230192767A1 (MEDIKINE, published 2023)

Key:
[1] = target: T1, human IL-2Rβ (CD122 protein, Fc Tag) (27-239) (human, UniProt P14784 27-239); experiment: pH-dependent ELISA (Examples 9-12)
T1 construct: range 27-239; Bought protein; also called IL-2Rβ subunit; IL-2Rβ-Fc; not shown: Fc Tag of the bought protein (ACRObiosystems ILB-H5253)
T1 sequence (looked up): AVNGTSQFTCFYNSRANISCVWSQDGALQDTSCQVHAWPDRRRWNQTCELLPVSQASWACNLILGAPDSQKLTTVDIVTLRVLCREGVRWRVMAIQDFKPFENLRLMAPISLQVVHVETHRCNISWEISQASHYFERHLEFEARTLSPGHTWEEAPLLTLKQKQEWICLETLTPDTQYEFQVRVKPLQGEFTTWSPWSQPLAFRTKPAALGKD
Experimental: For each peptide to be assayed, 16 ELISA plate wells were coated with neutravidin ([…] in PBS pH7.2) at 50 μL/well. The coated wells were incubated at 25° C. for at least 1 h.
The neutravidin was removed from each well. Three-hundred (300) μL of blocking buffer (1×PBS pH 7.2, 1% BSA) was added to each well of the neutravidin-coated plates. All plates were covered and maintained at 25° C. for 1 h or overnight at 4° C.
The biotinylated peptides were diluted to 1 μM in PBT pH 7.2 buffer and 50 uL was added to the appropriate 16 wells (8 for each binding pH). The plates were incubated at 25° C. for at least 1 h.

[2] = target: T1, human IL-2Rβ (CD122 protein, Fc Tag) …; experiment: IC50, method not told in the paragraph

| Binder | decrease in binding at pH 7.5 compared to pH 6.0 [1] [%] | IC50 [2] [µM] |
| --- | --- | --- |
| YACRFAHVGDLCDL [SEQ ID NO 534] | > 15 |  |
| LLSYPCRMAQVGELCDIAMK [SEQ ID NO 570] | > 15 |  |
| EDCWMAQVGQLCDL [SEQ ID NO 403] | > 15 |  |
| LECRLARLGDLCYL [SEQ ID NO 443] | > 15 |  |
| HQCRFAHVGELCDLFVFESY [SEQ ID NO 419] | > 15 |  |
| RTMKQCSIAQVGELCDLAVT [SEQ ID NO 429] | > 15 |  |
| CGMAIGDLCMWT [IL-2Rβ ligand SEQ ID NO: 1084] |  | < 10 |
| VLCRIAQVGQLCEL [SEQ ID NO 526] | > 15 |  |
| WPMSQFQKCATAQVGELCEL [SEQ ID NO 499] | > 15 |  |
| LEFMWIQDCGMAEVGELCEL [SEQ ID NO 468] | > 15 |  |
| LDCRIAPLGELCDMFISAFN [SEQ ID NO 436] | > 15 |  |
| GVKDGWEDCGIAQVGELCVL [SEQ ID NO 402] | > 15 |  |
| QVLKNCRLAHIGELCYLSER [SEQ ID NO 428] | > 15 |  |
| LSCSIAQVGELCDL [SEQ ID NO 456] | > 15 |  |
| NLRQNCRDAPVGELCDLEWI [SEQ ID NO 501] | > 15 |  |
| DEMQDCQIAQVGELCDLGLE [SEQ ID NO 470] | > 15 |  |
| YDCRIAQVGELCDL (also called Peptide E) [IL-2Rβ ligand SEQ ID NO: 58] |  | < 10 |
| WGRQECRFANVGDLCDVSNY [SEQ ID NO 491] | > 15 |  |
| SDCSVANVGDLCNL [SEQ ID NO 515] | > 15 |  |
| VLEVLRQECRMAQVGELCDL [SEQ ID NO 494] | > 15 |  |

| Binder | decrease in binding at pH 7.5 compared to pH 6.0 [1] [%] | IC50 [2] [µM] |
| --- | --- | --- |
| KSCARAQVGELCYIEGAEDA [SEQ ID NO 430] | > 15 |  |
| EQTRSGYACRTAQVGELCDL [SEQ ID NO 535] | > 15 |  |
| RWGDVGDLLMPL [IL-2Rβ ligand SEQ ID NO: 1043] |  | < 10 |
| QDCRKANVGELCYLDWDSPT [SEQ ID NO 476] | > 15 |  |
| FIAQKCRLAKVGELCDLGYS [SEQ ID NO 500] | > 15 |  |
| GLNPMIPGCQMAQVGELCEL [SEQ ID NO 463] | > 15 |  |
| CCYQAMVGDLCDFC [IL-2Rβ ligand SEQ ID NO: 83] |  | < 10 |
| VDCWIAQLGELCELEDGRRQ [SEQ ID NO 524] | > 15 |  |
| YDCQKAQLGELCDLRYSVRD [SEQ ID NO 536] | > 15 |  |
| KACSIAQVGDLCEIYGFDDA [SEQ ID NO 421] | > 15 |  |
| WQCRWAQVGELCDLSSENDN [SEQ ID NO 531] | > 15 |  |
| GRFYPCNMAQVGELCELMEY [SEQ ID NO 568] | > 15 |  |
| SVWQECSMAQVGDLCELHIG [SEQ ID NO 495] | > 15 |  |
| TYAKLVNYCWTAQLGELCYL [SEQ ID NO 461] | > 15 |  |
| NMCLVGDYWPSCQI [IL-2Rβ ligand SEQ ID NO: 169] |  | < 10 |
| SWVNNCRMAQVGELCDLPNW [SEQ ID NO 460] | > 15 |  |
| QICDVGQWWPDCQV [IL-2Rβ ligand SEQ ID NO: 170] |  | < 10 |
| QDGAKLKECRVAQVGELCEF [SEQ ID NO 427] | > 15 |  |
| FECWIAQVGELCDL [SEQ ID NO 411] | > 15 |  |
| QDCRLAHLGDLCDLWSPRQN [SEQ ID NO 477] | > 15 |  |

| Binder | decrease in binding at pH 7.5 compared to pH 6.0 [1] [%] | IC50 [2] [µM] |
| --- | --- | --- |
| QNCSTAKVGELCDLLMEGTE [SEQ ID NO 503] | > 15 |  |
| KDCRTALIGDLCDLTLHLGG [SEQ ID NO 425] | > 15 |  |
| HDCWFAKLGELCDLRQMSFV [SEQ ID NO 416] | > 15 |  |
| QDCRMAQVGHLCDL [SEQ ID NO 481] | > 15 |  |
| LRCRMAQVGDLCDLDRAWDW [SEQ ID NO 454] | > 15 |  |
| TWAYDCRTAEVGELCDLPVQ [SEQ ID NO 551] | > 15 |  |
| QPCRNAHLGQLCDLQTWTNS [SEQ ID NO 505] | > 15 |  |
| YLCQVAGVGELCDLEESGRN [SEQ ID NO 566] | > 15 |  |
| GYEPIMRACRNAQVGDLCDL [SEQ ID NO 506] | > 15 |  |
| AVKRFRQDCRTAPVGTLCDL [SEQ ID NO 485] | > 15 |  |
| HECRFAQVGELCDL [SEQ ID NO 418] | > 15 |  |
| YPCRMADVGELCDL [SEQ ID NO 569] | > 15 |  |
| KDCRLAYVGELCDLNRSDTI [SEQ ID NO 423] | > 15 |  |
| LLCRMAHLGELCDL [SEQ ID NO 448] | > 15 |  |
| QDCRMAHLGELCTL [SEQ ID NO 480] | > 50 |  |
| EYFSHDQDCQTAQLGELCKM [SEQ ID NO 471] | > 15 |  |
| YDCRMAKVGDLCDLWSVWGR [SEQ ID NO 548] | > 15 |  |
| VTGWTYRDCRIANVGDLCEL [SEQ ID NO 507] | > 15 |  |
